According to the DeepSol protein solubility set:

Assay: soluble on expression in E. coli; label from the status in PepcDB or PDB records

Sequence	soluble on expression in E. coli
MHHHHHHSSGVDLGTENLYFQSMASSHLNKGIKQVYMSLPQGEKVQAMYIWIDGTGEGLRCKTRTLDSEPKCVEELPEWNFDGSSTLQSEGSNSDMYLVPAAMFRDPFRKDPNKLVLCEVFKYNRRPAETNLRHTCKRIMDMVSNQHPWFGMEQEYTLMGTDGHPFGWPSNGFPGPQGPYYCGVGADRAYGRDIVEAHYRACLYAGVKIAGTNAEVMPAQWEFQIGPCEGISMGDHLWVARFILHRVCEDFGVIATFDPKPIPGNWNGAGCHTNFSTKAMREENGLKYIEEAIEKLSKRHQYHIRAYDPKGGLDNARRLTGFHETSNINDFSAGVANRSASIRIPRTVGQEKKGYFEDRRPSANCDPFSVTEALIRTCLLNETG	soluble
MGHHHHHHSHMLEILYQDEWLVAVNKPSGWLVHRSWLDRDEKVVVMQTVRDQIGQHVFTAHRLDRPTSGVLLMGLSSEAGRLLAQQFEQHQIQKRYHAIVRGWLMEEAVLDYPLVEELDKIADKFAREDKGPQPAVTHYRGLATVEMPVATGRYPTTRYGLVELEPKTGRKHQLRRHLAHLRHPIIGDSKHGDLRQNRSGAEHFGLQRLMLHASQLSLTHPFTGEPLTIHAGLDDTWMQALSQFGWRGLLPENERVEFSAPSGQDGEISS	soluble
MGSDKIHHHHHHMAKQKDGFLGEQALVLPPAIVQRMKTDPATSILYITDIGYYPKAYNHFRERETPIDQYVFIYCTEGRGWFSLDGQKHPVVPNQYFILPAGLPHAYGADEKEPWTIYWIHFGGTLAPLYCTHRTCRLTDIKPGMHSRISYRTELFEEIFRVLKMGYSLENLSYASSVFHHYLGSLRYLREYREAFSEHRPAGEEDPVNAAIHYMKENLGKKLTLAELADYTGYSSSYFSNLFLKRTGYAPLSYFNQIKIQKACQFLDFTDMKVNQVCYRVGIEDAYYFSRLFSQIMGMSPREYKKVKKG	not soluble
MNKKSSSMVNMPAPREPINQKIDTNNALVLNHNAIYEQRLAEITQSNTCDKAIVTVNPYGTAPLSLYLGVWMDEAAALEINVVDSEATTEEVRYQYDVHPGANLIPVCGMVSAVNNQITLRLASQIVGQYTVMTDALPPTDSANVSLGFPIISVSCPAQQASLMEEGLYFSTYFDRYNLAFDHNGIVRWYVSQEIPSYNFVRMDNGHFLATSQGINHCLNMYEFDIMGRVYTVYLLDNEFHHSILPIENNLAIAPSEYSNGRPDGYSTGKDGVSIINLSTGLEVAYYDMLYVMDYSRSPRPSGSAPGQDVSMDDWLHINQSYINEPNNLLICSGRHQSAIFGVNVDSGELRFIMANHEDWSDEFKQYLLTPVDDDGVPLYDLTSPGGIDAADKNFWTWGQHNIVEIPNDEPGILEFMVFDNGNYRSREDAKSLLPLDNFSRVVQFKINLNTMTVTRPYEYGKTEVGNRGYSSFVSAKHLLTNGHLVIHFGATTVDEFEHTITAQPGSSDLVDPDEGQQALGRLVLQEINKETKEVLFEAMVTSGYFKNEETNGTNYRYDISAFRVYKMPLFA	not soluble
MATAVELALLKQPYFDLNALCKTVFVTYKAGPGLKKIVTVQAQYVDICNKPNVRGTVVSLPGSPGSHNDIKYMRDSFEKHNIRLICVNWPGSEFVTGGMNDTYTNAERNSYAKALMEKLELKKVEKLILLGHSRGGESALQLACTLSDDRSWPLIGAVMLNSPGFVVHRGISIRMGTINTVSFLVKLRWKIVDCILFPVLDWFYNDFVGLRVSDGKVCAAAMLPMQTFAFEEQRASIDEMKKKPWIRMFYAYGSKDFLVDESDSEELAMHFGGDHYIIHSKKESEETIPKIWNSYERGQSYVTANFTEEGHYLHKTYPEFLIQIFGGIFDVKTEKS	not soluble
MAAELVQLNPGQQVERWSIEKKLGEGGFGAVYRVFDATGKYAMKVEGANEQIQVLKLEVSVLNKLSKRGNRHFCKIEDKGRFGNFNYVVMTLVGKSLQDLNKAGVGGHMSMGCSIGIGIQSLEALEDLHNIGYLHRDVKPGNYTIGRPELNEIRKVYILDFGMCRKFTGNDGTIRKPRQAAGFRGTVKYAPISCHLQRELCRKDDLETWMYMQVELSHGTIPWQYISDMNQVGQAKQAIRNNLGSLFPPPCPHQFQDIMRMVDAMKYYDAPNYQAIYGMMRQAYGACGSNENAPYDWENGGPAAYLLH	not soluble
MELIDKFITLHDQLRKDLNLASLCISKAKTTHGIGLFSVNSVDTHDLEPSIRLDTKNGKFVLLKNSENEEEKNDKKNKKKKDENKSEKKNSGESEDVEEAKKTFSGQFRPFGVLEPAAAKDARKIYRNSIQTILDLVSTQQSILAKSRQLVEDC	not soluble
DVQKKTFTKWINARFSKSGKPPINDMFTDLKDGRKLLDLLEGLTGTSLPKERGSTRVHALNNVNRVLQVLHQNNVELVNIGGTDIVDGNHKLTLGLLWSIILHWQVKDVMKDVMSDLQQTNSEKILLSWVRQTTRPYSQVNVLNFTTSWTDGLAFNAVLHRHKPDLFSWDKVVKMSPIERLEHAFSKAQTYLGIEKLLDPEDVAVRLPDKKSIIMYLTSLFEVLPQ	soluble
MSLATPSFGNSSPQLTFTHVANFMNDAAADVSAVDAKQLAQIRQFLKANKTNLIESLNTIRQNVTSSGDHNKLRSTIANLLQINVDNDPFFAQSEDLSHAVEFFMSERSSRLHIVYSLLVNPDIDLETYSFIDNDRFNVVGKLISIISSVIQNYDIITASSLAHDYNNDQDMFTIVSLVQLKKFSDLKFILQILQILNLMILNTKVPVDIVNQWFLQYQNQFVEFCRNINSTDKSIDTSSLQLYKFQNFQDLSYLSETLISRISSLFTITTILILGLNTSIAQFDIQSPLYMDTETFDTVNSALENDVATNIVNEDPIFHPMIHYSWSFILYYRRALQSSESFDDSDITKFALFAESHDVLQKLNTLSEILSFDPVYTTVITVFLEFSLNFIPITASTSRVFAKIISKAPEQFIENFLTNDTFEKKLSIIKAKLPLLNEEGHHHHHH	soluble
MGHHHHHHSHTQDKNYEDELTQVALALVEDVINYAVKIVEEERNPLKNIKWMTHGEFTVEKGLKQIDEYFSKCVSKKCWAHGVEFVERKDLIHSFLYIYYVHWSISTADLPVARISAGTYFTMKVSKTKPPDAPIVVSYVGDHQALVHRPGMVRFRENWQKNLTDAKYSFMESFPFLFNRV	not soluble
MSLTRNRTVALAIIDMQNDFVLPGAPACVEGAMGTVPVIAGLLAKARAEGWMVLHVVRAHRADGSDAEKSREHLFLEGGGLCVAGTPGAEIVAGLEPASGETVLVKTRFSAFMGTECDMLLRRRGVDTLLVSGTQYPNCIRGTAVDAFALDYDVVVVTDACSARTPGVAESNINDMRAMGITCVPLTALDDVLARRPVPSGPPPREGHHHHHH	soluble
MTNNQKLVGRHKRLAFMKVGTEGTYDRITGFTSLIEGKEAKEYARQYIDEATERTDVVGYATGIEYAFDRYTNNAVHEKIANITDDELLGVDAQVEIVSVDVFEEKAGGKYPARKRTYSVVPDTTGDGTDALIYSGNFKAVSEIVKGYCTTTDKWQTCTFVEGEIPAEALEHHHHHH	soluble
MGSDKIHHHHHHMIYLDQAASSFPKPKEVAEAMVAAVNEYGANPGRGGHRLATQARVTIDETRELLKTLFNAPSKKHVWFYQNATGALNQALFGFPFKEGDHVVSTALEHNSVRRPLEQLRERNGLVITYAQPDEEGIISPEKIAQACTDQTKAIVLSHGSNVTGAYLELEKIGEMAEAHGIVFIVDASQTAGVIDIDMKRDRISMLACAGHKGLLGPQGTGVLIVADDYGLTPLSYGGTGSYSELIDQPSQWPDRYESGTLNTPGIAGLKAGIEYVLDNGVAQIFAHEWALTERLLKGLGAQKVDVYGPPLPRKRLGVVSFRLSGFDSHEVALILDEHYQIAVRAGLHCAPMTHETLQTTDTGLIRVSVGPFNTEREVDQLLQAVMDIQQAFTS	not soluble
MPTIQQLVRKGRRDKISKVKTAALKGSPQRRGVCTRVYTTTPKKPNSALRKVARVKLTSQVEVTAYIPGEGHNLQEHSMVLVRGGRVKDLPGVRYKIIRGSLDTQGVKNRKQARSRYGAKKEKG	not soluble
MSLQAANLRQSRSMTLGLIVTEIINPYFAELAMAVDQIAHDAGYTIFIGYSRDHADRQHEIISSMIERQVDGILLLPAPDTDPEKLAKQVNAAGVPVVLLARRFAGFDYVGSENVKGATILGDHLSALGCRSVAFLGGLTASSLAEREEGLRASLEPRGCDVWSVDEFRSPITPEGGVAAVGRLFDQGKLPDAIIAYNDAVAQGIYDEMRRRGLEPGRDLAVASFDDTRIAASQVPPMTSVAGFPQEIGAKGAEMLMTRLADGNEDIPTQLTLIQPQLKIRSSTATWRREGHHHHHH	soluble
MDSQKLRTEGKKMLDFVADYWDGIRDRKPLPDVKPGYINDLVPAQAPATPEDWAKIFDDLENVVVNGATHWHHPHFFAYFPTALSYQSIMADILSGGIAGIGFTWKSCPSMTELEMSSLDWVVDLMGLPEHFKNSHNGPGCGIIQSTASDSTMIAIMAARATHVERIKSEPTFMKWVSETGVGKTLKNIFDRVKVNKVDDEASGMITPYFHDPTVFERFVMYCSDQAHSSVEKGAMLSAVRMRKLKATRGFLGNYGVSRETLQNAIKEDRARGYIPFMFLATVGTTCSCGVDQVDELGPVCVEEGLYLHVDAAYAGTFALCEEFKYLIRGMEHVDSFNFNLHKAGMVNFDCSPMWFKNGTHVSRYFNVDAVYLAHEYQTTASDYRHLQVALGRRFRSLKIWFVLRNMGVDKIREYLRRTELLAAEFSKLILENGKFEHFVPQHLGLTCFRLKNSTNADNEKLCNAINDDRRIHLVPSTVHGTYFLRMVVCSQLTTLDDIIYARDVIFELAEKLF	not soluble
AKLLPKLQKQNLSDSAQQIAQERGLGNSSQRKVYLPIIRAYRVGPELIDWTDGKNLRELGIYRQTGCYIERIRRNGILAHPDGDAILQEGDEIALVGFPDSHARLDPSFRNGKEVFDRNLLDLRIVEEEIVVKSDAIAGKRLSDLNLSEFGCFLNRVVRAQIEMPMDLDIVLAKGDVLQVSGEKSRVHGLAEKIGFISIHSQMAD	not soluble
ALESARAGYWEWNVENGTILIDRQWAVISGYNSADFDMLTMEQWRELCHPADLGVVTKSIEELLDGSMERLELELRVRHKNGEWIRVLDCGKVTGRSKNGKPSCLTGSRQALASLHDK	soluble
AGHILLLEEEDEAATVVCEMLTAAGFKVIWLVDGSTALDQLDLLQPIVILMAWPPPDQSCLLLLQHLREHQADPHPPLVLFLGEPPVDPLLTAQASAILSKPLDPQLLLTTLQGLCPPN	soluble
NNDITAENNNIYKAAKDVTTSLSKVLKNIN	soluble
MAGVKAYELRTKSKEQLASQLVDLKKELAELKVQKLSRPSLPKIKTVRKSIACVLTVINEQQREAVRQLYKGKKYQPKDLRAKKTRALRRALTKFEASQVTEKQRKKQIAFPQRKYAIKA	soluble
MPFAIGQRWLSESENALGLGVITALDQRTVTIYFPAADETRIYAMAQAPLSRIVFSKGETLSHQAGWQGEILDVQNMNGLLFYLVKNPQDEDVIVQERDISPIISFSQAKDRLFSAQIDRSTHFALRY	not soluble
MAHHHHHHMEHLSVTKNSQMNNLAAYNNQEANYSLAAPNQEEYSENDLFYTFYDKFNEIFLFIQNLKENKNDLEDEVDDNLIKTLHNLCLEFLNYIKQINDFGHMNLSKNDQDLIIESYEKFVRQCKQYNDKPQVKQLENEISNLLDLLFNNTSGRHNSWRSGKKRKKREKEKKKLISPP	soluble
